B1: Cwc22 (protein, UniProt Q8C5N3 1-908, looked up)
Pre-mRNA-splicing factor …: MKSSVAHMKSSGHNRRETHSSYRRSSSPEDRYTEQERSPRDRGYSDYSRSDYERSRRGYSYDDSMESRSRDREKRRERERDADHRKRSRKSPSPDRSPARGGGQSSPQEEPTWKKKKDELDPLLTRTGGAYIPPAKLRMMQEQITDKSSLAYQRMSWEALKKSINGLINKVNISNISIIIQELLQENIVRGRGLLSRSVLQAQSASPIFTHVYAALVAIINSKFPQIGELILKRLILNFRKGYRRNDKQLCLTASKFVAHLINQNVAHEVLCLEMLTLLLERPTDDSVEVAIGFLKECGLKLTQVSPRGINAIFERLRNILHESEIDKRVQYMIEVMFAVRKDGFKDHPVILEGLDLVEEDDQFTHMLPLEDDYNPEDVLNVFKMDPNFMENEEKYKAIKKEILDEGDSDSNTDQGAGSSEDEEEEDEEEEGEDEEGGQKVTIHDKTEINLVSFRRTIYLAIQSSLDFEECAHKLLKMEFAESQTKELCNMILDCCAQQRTYEKFFGLLAGRFCMLKKEYMESFESIFKEQYDTIHRLETNKLRNVAKMFAHLLYTDSLPWSVLECIKLSEETTTSSSRIFVKIFFQELCEYMGLPKLNARLKDETLQPFFEGLLPRDNPRNTRFAINFFTSIGLGGLTDELREHLKNTPKVIVAQKPEAEQKKPALTSSSSESSSASDSSDSESDSSESSSESSSDASDSSSSSSTQSSTSGITAHSAKGTRKKRQGKARGEEVDKLARGHQALERRREGGREDQRHQEGRTERARSERRRAQNSRDADWRDPLAKHIDDRSHENSHSRVGNGREQGSHREPEDRHGEPKKRRERRDSFSENEKQRSRNQDSDNVRRKDRSKSRERSRRHSGHKGDDARCQNSAERRWEKPGRRPEQSRESKRSQDRRREKSPTTQK
B2: Necap1 (protein, UniProt Q9CR95 1-275, looked up)
Adaptin ear-binding …: MAAELEYESVLCVKPDVSVYRIPPRASNRGYRASDWKLDQPDWTGRLRITSKGKIAYIKLEDKVSGELFAQAPVEQYPGIAVETVTDSSRYFVIRIQDGTGRSAFIGIGFTDRGDAFDFNVSLQDHFKWVKQETEISKESQEMDNRPKLDLGFKEGQTIKLSIGNITAKKGGASKPRASGTGGLSLLPPPPGGKVTIPPPSSSVAISNHVTPPPIPKSNHGGNDSDILLDLDSPAPVSTSAPAPVSTSNDLWGDFSTASSSVPNQAPQPSNWVQF
B3: Ddx41 (protein, UniProt Q91VN6 1-622, looked up)
Probable ATP-dependent RNA …: MEDSEPERKRARADEATAGGSRSEDEDEDDEDYVPYVPLRQRRQLLLQKLLQRRRKGATEEEQQDSGSEPRGDEDDIPLGPQSNVSLLDQHQHLKEKAEARKESAKEKQLKEEEKILESVAEGRALMSVKEMAKGITYDDPIKTSWTPPRYVLSMSEERHERVRKKYHILVEGDGIPPPIKSFKEMKFPAAILRGLKKKGILHPTPIQIQGIPTILSGRDMIGIAFTGSGKTLVFTLPVIMFCLEQEKRLPFSKREGPYGLIICPSRELARQTHGILEYYCRLLQEDSSPLLRCALCIGGMSVKEQMETIRHGVHMMVATPGRLMDLLQKKMVSLDICRYLALDEADRMIDMGFEGDIRTIFSYFKGQRQTLLFSATMPKKIQNFAKSALVKPVTINVGRAGAASLDVIQEVEYVKEEAKMVYLLECLQKTPPPVLIFAEKKADVDAIHEYLLLKGVEAVAIHGGKDQEERTKAIEAFREGKKDVLVATDVASKGLDFPAIQHVINYDMPEEIENYVHRIGRTGRSGNTGIATTFINKACDESVLMDLKALLLEAKQKVPPVLQVLHCGDESMLDIGGERGCAFCGGLGHRITDCPKLEAMQTKQVSNIGRKDYLAHSSMDF
B4: Csnk2a2 (protein, UniProt O54833 1-350, looked up)
Casein kinase II subunit …: MPGPAAGSRARVYAEVNSLRSREYWDYEAHVPSWGNQDDYQLVRKLGRGKYSEVFEAINITNNERVVVKILKPVKKKKIKREVKILENLRGGTNIIKLIDTVKDPVSKTPALVFEYINNTDFKQLYQILTDFDIRFYMYELLKALDYCHSKGIMHRDVKPHNVMIDHQQKKLRLIDWGLAEFYHPAQEYNVRVASRYFKGPELLVDYQMYDYSLDMWSLGCMLASMIFRKEPFFHGQDNYDQLVRIAKVLGTDELYGYLKKYHIDLDPHFNDILGQHSRKRWENFIHSENRHLVSPEALDLLDKLLRYDHQQRLTAKEAMEHPYFYPVVKEQSQPCAENTVLSSGLTAAR
B5: Poldip3 (protein, UniProt Q8BG81 2-420, looked up)
Polymerase delta-interacting …: ADLSLDELIRKRGTAAKGRLSVRPGIGGVRSRVGIQHSLVNQPARTATFQQRFDARQKIGLSDARLKLGVKDAREKLLQKDARFRIKGKVQDAREMLNSRKQQGTVPQKPRQVADAREKISLKRRSPAAFTSPPIGTVTPALKLTKTIQVPQQKAMVPLHAHPAGMRINVVNNHQAKQNLYDLDEDDDIVVPVPPKQMKFAATGSLVHHMTGLSSSKLSMSKALPLTKVVQNDAYTAPVLPSSVRTKALTSMSRTLVNKEEPPKELPPAEPVLSPLEGTKMTVNNLHPRVTEEDIVELFCVCGALKRARLVHPGVAEVVFVKKDDAITAYKKYNNRCLDGQPMKCNLHMNGNVITSDQPILLRLSDSPSVKKESELPRRGNPASSNPPAEVDPDTVLRALFKSSGASVTTQPTEFKIKL
B6: Ddx47 (protein, UniProt Q9CWX9 2-455, looked up)
Probable ATP-dependent RNA …: AADEEPDSPSGALQTAAEEEETKTFKDLGVTDVLCEACDQLGWAKPTKIQIEAIPLALQGRDIIGLAETGSGKTGAFALPILNALLETPQRLFALVLTPTRELAFQISEQFEALGSSIGVQCAVIVGGIDSMSQSLALAKKPHIVIATPGRLIDHLENTKGFNLRALKYLVMDEADRILNMDFETEVDKILKVIPRDRKTFLFSATMTKKVQKLQRAALKNPVKCAVSSKYQTVEKLQQYYLFIPSKFKDTYLVYILNELAGNSFMIFCSTCNNTQRTALLLRNLGFTAIPLHGQMSQSKRLGSLNKFKAKARSILLATDVASRGLDIPHVDVVVNFDIPTHSKDYIHRVGRTARAGRSGKAITFVTQYDVELFQRIEHLIGKKLPVFPTQDEEVMMLTERVNEAQRFARMELREHGEKKKRKREDAGDDDDKEGAIGVRNKVAGGKMKKRKGR
B7: Ccdc55 (protein, UniProt Q5NCR9 1-542, looked up)
Nuclear speckle splicing …: MAIPGRQYGLILPKKTQPLHRVLQKPSVFGSDSDDDETSVSESLQREAAKKQAMKQTKLEIQKALAEDSTVYEYDSVYDEMQKKKEENNPKLLPGKDRKPKYIHNLLKAVEIRKKEQEKRMEKKIQREREMENGEFDDKEAFVTSAYKKKLEERAEEEEREKRAAALEAHLDVTKQKDLSGFYRHLLNQAVGEEAAPKSSFREARTVIKEEKLRGYPDETNSESRPPQQSCVLQRGAQEAEENPDADREFDDESSEDGEKRDHKVKSRGEDTGASMKHPKHHKNRAHSRSSSEERGLGTKHHSRGSQSRGHEHQDRQSRDQESCHKDRSHREEKSSHRHREASHKDHYWKKHEQEDKLKGREQEERQDREGKREKYSSREQERDRQRNDHDRYSEKEKKRKEKEEHTKARRERCEDSGKHREREKPEGHGQSSERHRDRRESSPRSRPKDDLDQERSSKARNTEKDKGEQGKPSHSETSLATKHRLAEERPEKGSEQERPPEAVSKFAKRSNEETVMSARDRYLARQMARINAKTYIEKEDD

Target: T1, nSR100 (Mus musculus, UniProt Q8BKA3)
T1 construct: host or cells: mouse N2A cells
T1 sequence (Q8BKA3 1-608): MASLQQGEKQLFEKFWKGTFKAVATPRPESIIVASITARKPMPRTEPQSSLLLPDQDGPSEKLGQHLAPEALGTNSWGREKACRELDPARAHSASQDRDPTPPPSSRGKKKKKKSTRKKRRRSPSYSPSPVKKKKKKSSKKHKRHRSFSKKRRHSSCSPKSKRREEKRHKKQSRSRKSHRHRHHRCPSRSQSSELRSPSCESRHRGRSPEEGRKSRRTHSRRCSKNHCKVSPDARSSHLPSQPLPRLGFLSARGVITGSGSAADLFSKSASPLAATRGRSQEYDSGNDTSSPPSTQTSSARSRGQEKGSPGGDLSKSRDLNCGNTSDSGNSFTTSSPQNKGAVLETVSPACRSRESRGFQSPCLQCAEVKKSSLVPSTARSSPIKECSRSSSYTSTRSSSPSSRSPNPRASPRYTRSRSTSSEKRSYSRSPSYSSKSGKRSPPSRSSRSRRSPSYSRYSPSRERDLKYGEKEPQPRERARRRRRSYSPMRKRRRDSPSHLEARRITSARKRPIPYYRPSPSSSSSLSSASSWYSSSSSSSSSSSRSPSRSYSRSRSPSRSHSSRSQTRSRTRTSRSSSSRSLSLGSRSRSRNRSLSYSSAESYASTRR
Assay: AP-MS nSR100 interaction partners from mouse N2A cells (Table 5)
Type: binding
Details: bait Srrm4
Source text: By applying affinity purification coupled to mass-spectrometry (AP-MS), several interaction nSR100 partner proteins were detected that provide insight into mechanisms of post-translational regulation of nSR100 levels.

Molecule | AvgP (average of the SAINT scores) | MaxP (maximal SAINT score)
B1 | 1 | 1
B2 | 1 | 1
B3 | 1 | 1
B4 | 1 | 1
B5 | 1 | 1
B6 | 1 | 1
B7 | 1 | 1

Same assay, conditions: bait Srrm4, 0.1 added to prevent division by 0

Molecule | FoldChange between the prey Avg spectra of the bait and control purifications
B1 | 385
B2 | 125
B3 | 65
B4 | 10
B5 | 65
B6 | 35
B7 | 75

Same assay, conditions: bait Srrm4, 2 replicates

Molecule | AvgSpec (average number of spectra per replicate)
B1 | 38.5
B2 | 12.5
B3 | 6.5
B4 | 20
B5 | 6.5
B6 | 3.5
B7 | 7.5

Same assay, conditions: bait Srrm4, biological replicate 1 (first number of the cell), AP-MS

Molecule | Spectra (number of spectra for the prey in the purification of the bait)
B1 | 37
B2 | 12
B3 | 6
B4 | 16
B5 | 7
B6 | 3
B7 | 5

Same assay, conditions: bait Srrm4, biological replicate 2 (second number of the cell), AP-MS

Molecule | Spectra (number of spectra for the prey in the purification of the bait)
B1 | 40
B2 | 13
B3 | 7
B4 | 24
B5 | 6
B6 | 4
B7 | 10

Same assay, conditions: bait Srrm4, sum of spectra over 2 replicates

Molecule | SpecSum
B1 | 77
B2 | 25
B3 | 13
B4 | 40
B5 | 13
B6 | 7
B7 | 15

Reference: US10772928B2, “Modulation and detection of a neuronal alternative splicing regulatory network for treatment and diagnosis of neurological disorders” (The Governing Council of the University of Toronto, priority 2014, dated 2020)
